Results as given in PMC7354611.

Target: Bacillus cereus MazF (mRNA interferase BC0266) (Bacillus cereus)
Assay: SEC; Superdex 75 10/300 GL column, with reference proteins of the Gel Filtration Calibration Kits (GE Healthcare); His-tagged MazF eluted at almost the same time as carbonic anhydrase (29 kDa)

Substance: Bacillus cereus MazF (mRNA interferase BC0266) (natural protein)
- stoichiometry N: 2
